Laboratory results: publication PMC3919030

What was measured:
[1] = biological target: Acidianus hospitalis Vps4 (AhosVps4, wild type, full length) (Acidianus hospitalis); test: SEC
[2] = biological target: Vps4p (Saccharomyces cerevisiae) (UniProt P52917); conditions: cited from earlier work
Chain of Vps4p (Saccharomyces cerevisiae) (P52917 whole entry): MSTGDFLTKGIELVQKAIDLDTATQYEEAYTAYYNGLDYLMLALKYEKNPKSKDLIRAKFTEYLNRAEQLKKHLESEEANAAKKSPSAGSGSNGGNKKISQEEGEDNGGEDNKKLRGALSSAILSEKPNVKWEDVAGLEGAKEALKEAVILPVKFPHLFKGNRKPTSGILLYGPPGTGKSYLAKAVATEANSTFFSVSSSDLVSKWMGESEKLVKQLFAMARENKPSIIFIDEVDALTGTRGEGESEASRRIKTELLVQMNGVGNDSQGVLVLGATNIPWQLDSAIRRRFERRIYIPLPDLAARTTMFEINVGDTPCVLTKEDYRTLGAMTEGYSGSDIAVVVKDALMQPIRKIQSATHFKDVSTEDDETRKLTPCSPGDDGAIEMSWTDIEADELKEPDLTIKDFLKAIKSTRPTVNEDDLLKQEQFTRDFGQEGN

Chain of Vta1p (Q06263 whole entry): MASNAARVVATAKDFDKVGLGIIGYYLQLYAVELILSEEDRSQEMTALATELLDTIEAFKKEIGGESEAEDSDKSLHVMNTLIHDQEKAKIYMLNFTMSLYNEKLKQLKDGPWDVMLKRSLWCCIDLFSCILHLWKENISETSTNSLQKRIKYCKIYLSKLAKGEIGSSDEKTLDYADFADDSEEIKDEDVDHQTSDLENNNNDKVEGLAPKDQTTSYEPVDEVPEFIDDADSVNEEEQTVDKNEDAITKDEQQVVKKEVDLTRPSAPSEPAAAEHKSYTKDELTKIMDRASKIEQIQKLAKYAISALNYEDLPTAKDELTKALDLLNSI

Substance | stoichiometry N [1] | Kd [2] [µM]
Acidianus hospitalis Vps4 (AhosVps4, wild type, full length) (enzyme) | 6 | –
Vta1p (from UniProt Q06263) | – | 17
